The record followed here is patent US9512196B2, “Short-form human MD-2 as a negative regulator of toll-like receptor 4 signaling” (Cedars-Sinai Medical Center, priority 2008, dated 2016).

The target of one assay is T1, TLR4 (Homo sapiens, UniProt O00206).
T1 construct: expressed in transfected cells; host or cells: HEK293
The assay can be described thus: NF-κB luciferase reporter in HEK293 cells expressing TLR4, LPS stimulation. The settings on record: for LPS-dependent NF-κB activation conferred by soluble protein: culture supernatants added to HEK293 cells stably transfected with TLR4 and NF-κB luciferase reporter; for LPS-mediated NF-κB activation on transient expression: plasmid transfected with CD14 into HEK293 TLR4/NF-κB reporter cells, LPS 250 ng/ml 6 h. The class given is cell-based. The method, then:
(A) HEK-293 cells stably transfected with TLR4 and a NF-κB reporter gene were treated with supernatants containing either MD-2 or MD-2s as described in the examples herein. Cells were left untreated or stimulated with LPS for 24 h. Mean relative stimulation of luciferase activity±S.D. for a representative experiment, each performed in triplicate, is shown. (B) HEK-293 cells stably transfected with TLR4 and a NF-κB reporter gene were transiently transfected with plasmids encoding for either MD-2, MD-2s or CD14 as shown. 24 h later, cells were left untreated or stimulated with LPS (250 ng/ml) for 6 h. Mean relative stimulation of luciferase activity±SD for a representative experiment, each performed in triplicate, is shown. (C) and (D) Supernatants were also collected and measured for IL-8 secretion.
(A) HEK293 cells were transiently transfected with plasmids encoding TLR4 and a NF-κB reporter gene in combination with MD-2 and MD-2s as indicated. 24 h later, cells were left untreated or incubated with LPS (250 ng/ml) for 5 h. Mean relative stimulation of luciferase activity±S.D. for a representative experiment from three separate experiments, each performed in triplicate, is shown. (B) HEK-293 cells stably transfected with TLR4 and a NF-κB reporter gene were treated with supernatants containing either MD-2 and MD-2s as depicted and left untreated or incubated with LPS for 24 h. Mean relative stimulation of luciferase activity±S.D. for a representative experiment from three separate experiments, each performed in triplicate, is shown.
HEK293 cells were transiently transfected with the expression vectors noted in combination with constructs encoding the NF-κB- and IL-8-luciferase reporter gene, and either the β-galactosidase gene or the phRL-TK report gene to normalize for transfection efficiency. In all cases, total DNA concentration was kept constant by supplementation with empty vector control. Following overnight incubation, cells were stimulated for 6 hours with 50 ng/ml LPS and then lysed, and luciferase activity was measured as described previously (Ohta et al. (2004) BIOCHEM BIOPHYS RES COMMUN 323, 1103-1108). Data are shown as mean±SD of three or more independent experiments and are reported as a percentage of LPS-stimulated NF-κB and IL-8 promoter activity, or relative luciferase activity.
The requirement for MD-2s in LPS mediated NF-κB activation was assessed. It has been shown that the soluble form of wild-type MD-2 confers LPS responsiveness to cells expressing TLR4; therefore, it was investigated if soluble MD-2s was also bioactive. Culture supernatants were obtained from HEK293 cells transiently expressing control vector, MD-2, or MD-2s, and incubated with HEK293 cells stably transfected with TLR4 and an NF-κB-dependent luciferase reporter gene.
MD-2s was tested to see if it needed to be transiently expressed in TLR4 reporter cells in order to mediate NF-κB activation following LPS stimulation. HEK293 cells stably transfected with TLR4 and an NF-κB-dependent luciferase reporter gene were transiently transfected with plasmids encoding CD14 in combination with either MD-2 or MD-2s, and subsequently treated with LPS.
HEK293 cells were transiently transfected with plasmids encoding CD14, TLR4, and wild-type MD-2 in conjunction with a plasmid encoding the NF-κB-dependent luciferase reporter gene in the presence or absence of a plasmid encoding MD-2s. […] Furthermore, we assessed the inhibitory role of soluble MD-2s following LPS stimulation. HEK293 cells stably transfected with TLR4 and an NF-κB-dependent luciferase reporter gene were incubated with supernatants obtained from HEK293 cells transiently expressing a constant amount of MD-2 with increasing concentrations of MD-2s.
Background: Reporter assays use an easily measured gene product as a stand-in for the process of interest.

The next assay concerns TLR4-expressing cells. The assay can be described thus: Surface staining of TLR4-mCitrine HEK293T cells (flow cytometry, confocal imaging). Format: cell-based, human. The conditions noted are these: myc-tagged protein transfected into TLR4-mCitrine HEK293T cells. From the text:
HEK293T cells stably expressing fluorescent TLR4-mCitrine were transiently transfected with myc-tagged wild-type MD-2 or MD-2s and surface-stained with anti-myc antibody. (a) Cells analyzed by flow cytometry were gated to select single cells and the TLR4-positive population. Anti-myc staining of TLR4-mCitrine positive cells expressing MD-2 (top panel, thick line) or MD-2s (middle panel, thick line) and untransfected cells (thin line) is shown. […] Co-localization of TLR4 and MD-2 isoforms on the cell surface is visualized in yellow.
HEK293T cells were retrovirally transduced to generate a cell line stably expressing TLR4-mCitrine. TLR4-mCitrine cells in 12-well dishes were transfected with 300 ng of plasmid encoding myc-tagged MD2 or MD2S using GeneJuice lipofection reagent (Novagen) and cultured overnight. Cells were dislodged by scraping, washed once with cold PBS and incubated with a 1:50 dilution of anti-myc Alexa 647-conjugated antibody (AbD Serotec) at 4° C. for 30 minutes. Cells were washed four times with PBS for and fluorescence was assessed with an LSR II flow cytometer (BD Biosciences) running FACS Diva software (BD Biosciences). Data was processed using FlowJo software v8.6.3 (Tree Star).
TLR4-mCitrine cells were cultured on glass-bottom confocal dishes (MatTek) coated with collagen. […]

T1 sequence (O00206 24-839): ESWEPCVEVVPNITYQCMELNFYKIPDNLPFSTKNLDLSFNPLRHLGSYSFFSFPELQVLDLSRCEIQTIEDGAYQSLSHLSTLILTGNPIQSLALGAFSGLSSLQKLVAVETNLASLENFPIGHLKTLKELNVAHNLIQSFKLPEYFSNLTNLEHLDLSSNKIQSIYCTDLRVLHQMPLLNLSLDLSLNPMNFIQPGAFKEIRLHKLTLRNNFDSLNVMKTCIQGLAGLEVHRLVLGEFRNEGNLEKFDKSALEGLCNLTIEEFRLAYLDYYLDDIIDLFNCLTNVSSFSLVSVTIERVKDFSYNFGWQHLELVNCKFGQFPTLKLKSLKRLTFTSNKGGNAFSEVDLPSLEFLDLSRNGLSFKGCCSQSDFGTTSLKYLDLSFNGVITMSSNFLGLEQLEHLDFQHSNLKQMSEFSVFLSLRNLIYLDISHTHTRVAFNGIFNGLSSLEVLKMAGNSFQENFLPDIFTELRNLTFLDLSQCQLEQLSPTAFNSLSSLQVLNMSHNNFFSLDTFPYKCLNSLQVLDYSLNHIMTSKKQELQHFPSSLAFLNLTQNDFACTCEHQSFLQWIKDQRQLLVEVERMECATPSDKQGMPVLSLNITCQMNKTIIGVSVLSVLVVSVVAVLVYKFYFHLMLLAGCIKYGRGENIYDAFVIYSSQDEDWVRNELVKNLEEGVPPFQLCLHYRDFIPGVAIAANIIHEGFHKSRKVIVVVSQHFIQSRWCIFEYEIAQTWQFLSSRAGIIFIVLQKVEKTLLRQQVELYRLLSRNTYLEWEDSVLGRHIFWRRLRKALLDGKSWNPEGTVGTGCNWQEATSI

As to “MD-2: full-length human wild-type MD-2, co-receptor of TLR4 [reference compound]”, in the assay with TLR4 (LPS 24 h), the “LPS-dependent NF-κB activation conferred by soluble protein” value is “strongly activated NF-κB”. The “LPS-mediated NF-κB activation on transient expression” value in the assay with TLR4 is reported as “activated NF-κB”. For the same molecule, the “Binding to the surface of TLR4-expressing cells” value with TLR4-expressing cells is “bind to the surface of TLR4-expressing cells”.

B1: MD-2s: alternatively spliced isoform of human MD-2 lacking exon 2, with D38G substitution; expressed and secreted protein sequences in Table 1 (protein, listed as Homo sapiens)
chain 1: MLPFLFFSTLFSSIFTEAQKQYWVCNSSDASISYTYCGRDLKQLYFNLYITVNTMNLPKRKEVICRGSDDDYSFCRALKGETVNTTISFSFKGIKFSKGKYKCVVEAISGSPEEMLFCLEFVILHQPNSN
chain 2: EAQKQYWVCNSSDASISYTYCGRDLKQLYFNLYITVNTMNLPKRKEVICRGSDDDYSFCRALKGETVNTTISFSFKGIKFSKGKYKCVVEAISGSPEEMLFCLEFVILHQPNSN
As to B1, in the assay with TLR4 (MD-2s plasmid co-transfected with CD14, TLR4, wild-type MD-2 and reporter, LPS 250 ng/ml 5 h), the “Effect on LPS-induced NF-κB activation mediated by MD-2/TLR4” value was “significantly inhibited”. Further, the “LPS-dependent NF-κB activation conferred by soluble protein” value with TLR4 (LPS 24 h) was “could not confer LPS responsiveness”. Moreover, the “LPS-mediated NF-κB activation on transient expression” value with TLR4 was “unable to induce LPS-mediated NF-κB activation”. In addition, the “Effect of soluble form on LPS-induced NF-κB activation” value with TLR4 (supernatants with constant MD-2 and increasing MD-2s on TLR4/NF-κB reporter cells, LPS 24 h) was “inhibits NF-κB activation”. The “Binding to the surface of TLR4-expressing cells” value in the assay with TLR4-expressing cells is on record as “bind to the surface of TLR4-expressing cells”.
